# The supplement of paper PMC10567573
# B1: MMP1 (parent)
# chain: MFFKDRFYMRTNPFYPEVELNFIS
# Variants of: B1
# Assay: protein stability index of a GFP-peptide fusion (GPS, HEK-293T) (PSI 1-6); higher = more stable
# Details: c terminus: a fixed tail appended
# 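Also: lentivirally expressed fusions sorted by FACS into six bins by GFP to DsRed ratio, PSI derived from sequencing read proportions per bin multiplied by bin number.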
row,Variant,protein stability index
1,MFFKDRFYMRTNPFYPEPELNFIS [V18P],3.06
2,MFFKDRFYMRTNPFYPETELNFIS [V18T],3.87
3,MFFKDRFYMRTNPFYPERELNFIS [V18R],1.87
4,MFFKDRFYMRTNPFYPEQELNFIS [V18Q],2.35
5,MFFKDRFYMRTNPFYPEGELNFIS [V18G],2.08
6,MFFKDRFYMRTNPFYPEWELNFIS [V18W],3.22
7,MFFKDRFYMRTNPFYPESELNFIS [V18S],3.28
8,MFFKDRFYMRTNPFYPEAELNFIS [V18A],3.25
9,MFFKDRFYMRTNPFYPEYELNFIS [V18Y],2.64
10,MFFKDRFYMRTNPFYPEEELNFIS [V18E],3.27
11,MFFKDRFYMRTNPFYPEDELNFIS [V18D],2.66
12,MFFKDRFYMRTNPFYPEIELNFIS [V18I],2.84
13,MFFKDRFYMRTNPFYPEHELNFIS [V18H],3.06
14,MFFKDRFYMRTNPFYPENELNFIS [V18N],1.78
15,MFFKDRFYMRTNPFYPELELNFIS [V18L],2.41
16,MFFKDRFYMRTNPFYPECELNFIS [V18C],2.99
17,MFFKDRFYMRTNPFYPEFELNFIS [V18F],2.61
18,MFFKDRFYMRTNPFYPEKELNFIS [V18K],3.54
19,MFFKDRFYMRTNPFYPEMELNFIS [V18M],2.52
20,MFFKDRFYMWTNPFYPEVELNFIS [R10W],2.82
21,MFFKDRFYMYTNPFYPEVELNFIS [R10Y],2.63
22,MFFKDRFYMRTNPFYPKVELNFIS [E17K],2.21
23,MFFKDRFYMRTNPFYPRVELNFIS [E17R],2.57
24,MFFKDRFYMRTNPFYPCVELNFIS [E17C],4.42

row,Variant,protein stability index
1,MFFKDRFYMRTNPFYPDVELNFIS [E17D],1.97
2,MFFKDRFYMRTNPFYPAVELNFIS [E17A],2.9
3,MFFKDRFYMRTNPFYPVVELNFIS [E17V],2.99
4,MFFKDRFYMRTNPFYPYVELNFIS [E17Y],2.42
5,MFFKDRFYMRTNPFYPLVELNFIS [E17L],2.55
6,MFFKDRFYMRTNPFYPMVELNFIS [E17M],2.78
7,MFFKDRFYMRTNPFYPPVELNFIS [E17P],1.8
8,MFFKDRFYMRTNPFYPHVELNFIS [E17H],3.02
9,MFFKDRFYMRTNPFYPWVELNFIS [E17W],3.19
10,MFFKDRFYMRTNPFYPSVELNFIS [E17S],2.15
11,MFFKDRFYMRTNPFYPNVELNFIS [E17N],3.69
12,MFFKDRFYMRTNPFYPGVELNFIS [E17G],2.52
13,MFFKDRFYMRTNPFYPFVELNFIS [E17F],2.19
14,MFFKDRFYMRTNPFYPTVELNFIS [E17T],1.84
15,MFFKDRFYMRTNPFYPIVELNFIS [E17I],3.71
16,MFFKDRFYMRTNPFYPEVELMFIS [N21M],1.94
17,MFFKDRFYMRTNPFYPEVELGFIS [N21G],4.41
18,MFFKDRFYMRTNPFYPEVELCFIS [N21C],3.71
19,MFFKDRFYMRTNPFYPEVELIFIS [N21I],3.34
20,MFFKDRFYMRTNPFYPEVELAFIS [N21A],2.56
21,MFFKDRFYMRTNPFYPEVELFFIS [N21F],2.33
22,MFFKDRFYMRTNPFYPEVELHFIS [N21H],2.76
23,MFFKDRFYMRTNPFYPEVELKFIS [N21K],1.96
24,MFFKDRFYMRTNPFYPEVELLFIS [N21L],3

row,Variant,protein stability index
1,MFFKDRFYMRTNPFYPEVELDFIS [N21D],3.07
2,MFFKDRFYMRTNPFYKEVELNFIS [P16K],2.25
3,MFFKDRFYMRTNPFYIEVELNFIS [P16I],3.59
4,MFFKDRFYMRTNPFYHEVELNFIS [P16H],2.95
5,MFFKDRFYMRTNPFYGEVELNFIS [P16G],3.15
6,MFFKDRFYMRTNPFYWEVELNFIS [P16W],2.44
7,MFFKDRFYMRTNPFYSEVELNFIS [P16S],2.96
8,MFFKDRFYMRTNPFYDEVELNFIS [P16D],2.18
9,MFFKDRFYMRTNPFYVEVELNFIS [P16V],3.21
10,MFFKDRFYMRTNPFYNEVELNFIS [P16N],3.95
11,MFFKDRFYMRTNPFYYEVELNFIS [P16Y],2.82
12,MFFKDRFYMRTNPFYMEVELNFIS [P16M],1.74
13,MFFKDRFYMRTNPFYCEVELNFIS [P16C],2.71
14,MFFKDRFYMRTNPFYFEVELNFIS [P16F],2.88
15,MFFKDRFYMRTNPFYEEVELNFIS [P16E],3.49
16,MFFKDRFYMRTNPFYTEVELNFIS [P16T],3.07
17,MFFKDRFYMRTNPFYLEVELNFIS [P16L],1.75
18,MFFKDRFYMRTNPFYREVELNFIS [P16R],1.98
19,MFFKDRFYMRTNPFYQEVELNFIS [P16Q],3.75
20,MFFKDRFYMRTWPFYPEVELNFIS [N12W],3
21,MFFKDRFYMRTCPFYPEVELNFIS [N12C],3.02
22,MFFKDRFYMRTRPFYPEVELNFIS [N12R],3.81
23,MFFKDRFYMRTLPFYPEVELNFIS [N12L],2.51
24,MFFKDRFYMRTFPFYPEVELNFIS [N12F],3.09

row,Variant,protein stability index
1,MFFKDRFYMRTYPFYPEVELNFIS [N12Y],3.12
2,MFFKDRFYMRTKPFYPEVELNFIS [N12K],3.17
3,MFFKDRFYMRTMPFYPEVELNFIS [N12M],2.94
4,MFFKDRFYMRTTPFYPEVELNFIS [N12T],2.56
5,MFFKDRFYMRTVPFYPEVELNFIS [N12V],2.43
6,MFFKDRFYMRTGPFYPEVELNFIS [N12G],2.91
7,MFFKDRFYMRTHPFYPEVELNFIS [N12H],2.87
8,MFFKDRFYMRTEPFYPEVELNFIS [N12E],4.11
9,MFFKDRFYMRTIPFYPEVELNFIS [N12I],2
10,MFFKDRFYMRTPPFYPEVELNFIS [N12P],3.4
11,MFFKDRFYMRTQPFYPEVELNFIS [N12Q],2.67
12,MFFKDRFYMRTSPFYPEVELNFIS [N12S],2.74
13,MFFKDRFYMRTDPFYPEVELNFIS [N12D],3.11
14,MFFKDRFYMRVNPFYPEVELNFIS [T11V],4.1
15,MFFKDRFYMRGNPFYPEVELNFIS [T11G],2.64
16,MFFKDRFYMRWNPFYPEVELNFIS [T11W],3.68
17,MFFKDRFYMRANPFYPEVELNFIS [T11A],3.18
18,MFFKDRFYMRMNPFYPEVELNFIS [T11M],3.47
19,MFFKDRFYMRDNPFYPEVELNFIS [T11D],3.5
20,MFFKDRFYMRCNPFYPEVELNFIS [T11C],3.79
21,MFFKDRFYMRHNPFYPEVELNFIS [T11H],1.78
22,MFFKDRFYMRENPFYPEVELNFIS [T11E],3.11
